According to patent publication US6858210B1, “Therapeutic and diagnostic domain 1 β2GPI polypeptides and methods of using same” (La Jolla Pharmaceutical Co., priority 1998, dated 2005):
Changes are numbered by the printed parent chain. In names and notes the source's numbering stands.

B1: A10: phage clone, domain 1 mutant D8G (protein)
chain: GRTCPKPGDLPFSTVVPLKTFYEPGEEITYSCKPGYVSRGGMRKFICPLTGLWPINTLKCTPRV
B2: SC3: phage clone, domain 1 mutant F45S (protein)
chain: B1 chain with G8D, F45S
B3: 4D1: phage clone, domain 1 multiple mutant N56T, R63G (protein)
chain: B1 chain with G8D, N56T, R63G
B4: 3F12: phage clone, domain 1 multiple mutant L10I, P17Q, Y22C (protein)
chain: B1 chain with G8D, L10I, P17Q, Y22C
B5: 4G1: phage clone, domain 1 mutant S31P (protein)
chain: B1 chain with G8D, S31P
B6: 3G1: phage clone, domain 1 multiple mutant R2W, S38T (protein)
chain: B1 chain with R2W, G8D, S38T
B7: 3A4: phage clone, domain 1 multiple mutant D8A, S13T (protein)
chain: B1 chain with G8A, S13T
B8: 3B4: phage clone, domain 1 mutant S38T (protein)
chain: B1 chain with G8D, S38T
B9: 3F6: phage clone, domain 1 mutant K44E (protein)
chain: B1 chain with G8D, K44E
B10: SE3: phage clone, domain 1 mutant T20I (protein)
chain: B1 chain with G8D, T20I
B11: 3C3: phage clone, domain 1 mutant L52P (protein)
chain: B1 chain with G8D, L52P
B12: SH1: phage clone, domain 1 mutant K33E (protein)
chain: B1 chain with G8D, K33E
B13: SC10: phage clone, domain 1 mutant N56D (protein)
chain: B1 chain with G8D, N56D
B14: 4B12: phage clone, domain 1 mutant T50P (protein)
chain: B1 chain with G8D, T50P
B15: Dom5: phage displaying wild type (WT) domain 5 (protein)
chain: CKLPVKKATVVYQGERVKIQEKFKNGMLHGDKVSFFCKNKEKKCSYTEDAQCIDGTIEVPKCFKEHSSLAFWKTDASDVKPC
modifications: left off: large carriers

These molecules were tested on human β2GPI-dependent antiphospholipid antibody (assay: Micropanning of mutant domain 1 phage, patient antibodies). Details: Table 7A, antibody 6501.
Format: binding
B1 was tested, and the μpan score was 2.

Same assay, conditions: Table 7A, antibody 6626
B1 was tested, and the μpan score was 2.

Same assay, conditions: Table 7A, antibody 6701
B1 gave a μpan score of 2.

Same assay, conditions: Table 7B, antibody 6226
Molecule B2 has a Micropan score of 3. With B3 the Micropan score was 4. With B4 the Micropan score was 1. B5 showed a Micropan score of 2. In the case of B6, the Micropan score is reported as 1. For B7, the Micropan score was 3. In the case of B8, the Micropan score is reported as 2. B9 was tested, and the Micropan score was 0 (0 symbolizing <10 colonies). With B10 the Micropan score was 3. With B11 the Micropan score was 1. In the case of B12, the Micropan score is reported as 4. In the case of B13, the Micropan score is reported as 3. B14 was tested, and the Micropan score was 1. In the case of B15, the Micropan score is reported as 0 (0 symbolizing <10 colonies).

Same assay, conditions: Table 7B, antibody 6501
B2 showed a Micropan score of 1. Work on B3 yielded a Micropan score of 2. With B4 the Micropan score was 1. B5 was tested, and the Micropan score was 2. Work on B6 yielded a Micropan score of 1. With B7 the Micropan score was 3. In the case of B8, the Micropan score is reported as 3. With B9 the Micropan score was 0 (0 symbolizing <10 colonies). Work on B10 yielded a Micropan score of 3. With B11 the Micropan score was 1. Work on B12 yielded a Micropan score of 4. B13 was tested, and the Micropan score was 3. B14 was tested, and the Micropan score was 1. B15 was tested, and the Micropan score was 0 (0 symbolizing <10 colonies).

Same assay, conditions: Table 7B, antibody 6632
With B2 the Micropan score was 4. B3 was tested, and the Micropan score was 3. In the case of B4, the Micropan score is reported as 1. B5 showed a Micropan score of 2. B6 was tested, and the Micropan score was 1. Molecule B7 has a Micropan score of 3. In the case of B8, the Micropan score is reported as 2. In the case of B9, the Micropan score is reported as 0 (0 symbolizing <10 colonies). B10 was tested, and the Micropan score was 3. For B11, the Micropan score was 0 (0 symbolizing <10 colonies). Molecule B12 has a Micropan score of 4. Molecule B13 has a Micropan score of 3. For B14, the Micropan score was 1. B15 was tested, and the Micropan score was 0 (0 symbolizing <10 colonies).

Same assay, conditions: Table 7B, antibody 6644
B2 showed a Micropan score of 4. For B3, the Micropan score was 4. With B4 the Micropan score was 1. B5 gave a Micropan score of 2. B6 was tested, and the Micropan score was 1. In the case of B7, the Micropan score is reported as 4. In the case of B8, the Micropan score is reported as 3. B9 was tested, and the Micropan score was 1. B10 gave a Micropan score of 3. B11 was tested, and the Micropan score was 1. For B12, the Micropan score was 4. B13 was tested, and the Micropan score was 3. Work on B14 yielded a Micropan score of 1. With B15 the Micropan score was 0 (0 symbolizing <10 colonies).

Same assay, conditions: Table 7B, antibody 6701
B2 was tested, and the Micropan score was 0 (0 symbolizing <10 colonies). In the case of B3, the Micropan score is reported as 4. B4 gave a Micropan score of 1. B5 gave a Micropan score of 2. B6 gave a Micropan score of 1. B7 was tested, and the Micropan score was 3. Molecule B8 has a Micropan score of 2. In the case of B9, the Micropan score is reported as 0 (0 symbolizing <10 colonies). Work on B10 yielded a Micropan score of 3. B11 gave a Micropan score of 1. Molecule B12 has a Micropan score of 4. B13 was tested, and the Micropan score was 3. B14 gave a Micropan score of 1. With B15 the Micropan score was 0 (0 symbolizing <10 colonies).

Same assay, conditions: Table 7B, antibody 7008
B2 was tested, and the Micropan score was 4. For B3, the Micropan score was 2. For B4, the Micropan score was 1. For B5, the Micropan score was 2. B6 was tested, and the Micropan score was 1. B7 showed a Micropan score of 3. With B8 the Micropan score was 2. B9 showed a Micropan score of 2. In the case of B10, the Micropan score is reported as 4. B11 showed a Micropan score of 1. With B12 the Micropan score was 4. In the case of B13, the Micropan score is reported as 4. Work on B14 yielded a Micropan score of 1. In the case of B15, the Micropan score is reported as 0 (0 symbolizing <10 colonies).

These molecules were tested on rabbit anti-human β2GPI (assay: Micropanning of mutant domain 1 phage, rabbit antibody). Details: Table 7A, first (or only) value.
Format: binding
Design: key: 0 (<10 colonies) to 4+ (confluent) semiquantitative colony score
Description: Error prone PCR was carried out as follows. Domain 1 of human β2GPI was amplified by PCR under conditions that enhance the error rate of Taq polymerase. The primers were such that amino acids 1-64 were amplified. A Sfc 1 restriction site was incorporated as part of amino acid 1. At the 3′ end a Sal 1 restriction site was incorporated after amino acid 64. The PCR reaction was done as described by Leung et al. (1989) Technique 1:11, using 0.25 mM MnCl2. The PCR product was digested with Sfc 1 and Sal 1 and cloned into fd-tet-DOG2 that had been digested with Apal 1 and Sal 1. This positions domain 1 at the N-terminus of pill immediately after the pill signal sequence. The ligation reaction was electroporated in E. coli K91. Phage were harvested and titered by standard methods. Resulting phage clones were assayed using a micropanning technique.
Immulon type 2 plates were coated with protein G. Protein G was prepared at 5 μg/mL in 0.1 M NaHCO3 and 100 μL per well was added to the wells of microtitration plates and incubated overnight at 4° C. After discarding excess protein G solution from plates, each well was blocked with 200 μL 2YT for 1 hour at RT with agitation on an oscillating platform. Tris-buffered saline, pH 7.4/0.5% Tween 20 (TBS/Tween), was used with an automatic plate washer to wash the wells 4 times with 200 μL. One hundred μL human β2GPI-dependent antiphospholipid 6626, 6501, 6701, rabbit β2GPI-dependent antiphospholipid, or control normal IgG, diluted to 2.5 μg/mL with 2YT, was added to washed wells. The plate was incubated for 1 hour at room temperature on a rotating platform.
Phage to be tested by micropanning were obtained from the agar plates generated by biopanning. Each clone to be tested was transferred using sterile toothpicks to a separate well of a round-bottom 96-well microtitration plate (Corning, Corning, N.Y.) containing 200 μL 2YT/Tet per well and cultured overnight at 30° C. Following overnight incubation, phage cultures were centrifuged using a microtitration plate holder at 1300×g for 10 minutes at room temperature. Supernatants constituted the source of “neat” phage. The neat phage were diluted 1: 100-1:1000 and 100 μL was added to the plate containing protein G-bound β2GPI-dependent antiphospholipid antibody-6501 and normal IgG prepared as described above. The incubation of dilute phage with aPL antibody or control IgG was carried out for 2 hours at room temperature on a flat rotator. After 9 washes with TBS/Tween in an automated plate washer, the IgG-bound phage was eluted with 20 μL of 0.2 N HCl-glycine/0.1% BSA, pH 2.2. The elution incubation continued for 10 minutes at RT, during which time a new Corning microtitration plate was prepared containing 20 μL of freshly starved E. coli per well and kept chilled. One hundred forty μL of 29 mM Tris was added to the plate containing the phage eluates in order to neutralize the pH, following which 20 μL of phage suspension was transferred from each well to the corresponding well in the plate containing starved E. coli. After a 10 minute incubation at 37° C., 200 μL 2YT was added and incubation carried out an additional 30 minutes at 37° C. Using multichannel pipettors, 8 μL from each well was spotted on a large 2YT/Tet agar plate while retaining the original 8×12 well pattern and orientation from the last microtitration plate. After allowing the spots to dry for 30 minutes, the plate was incubated overnight at 30° C. The following day, colonies were semiquantitatively scored from 0 to 4+, with 0 symbolizing <10 colonies; 1+=10-30; 2+=30 colonies to 70% confluent; 3+=70%-90% confluent; 4+=confluent.
For Table 7A, the rabbit anti-human β2GPI was performed on two separate occasions. Mutations are listed with the original amino acid, the position number, and the identity of the amino acid at that position in the mutant. […] Non-mutated domain 1 have a score of 3+, while domain 5 phage gave a score of −. Silent mutations are not shown. […]
B1 was tested, and the μpan score was 2, 2.

Same assay, conditions: Table 7A, second value (second occasion)
In the case of B1, the μpan score is reported as 2, 2.

Same assay, conditions: Table 7B, 1st column
Work on B2 yielded a Micropan score of 4. Work on B10 yielded a Micropan score of 4. For B12, the Micropan score was 4. Molecule B13 has a Micropan score of 4. With B15 the Micropan score was 4.

Same assay, conditions: Table 7B, 2nd column
Molecule B2 has a Micropan score of 4. Molecule B10 has a Micropan score of 4. B12 was tested, and the Micropan score was 4. Molecule B13 has a Micropan score of 4. With B15 the Micropan score was 4.

Same assay, conditions: Table 7B, 3rd column
Work on B2 yielded a Micropan score of 4. With B10 the Micropan score was 4. In the case of B12, the Micropan score is reported as 4. With B13 the Micropan score was 4. B15 was tested, and the Micropan score was 4.

Same assay, conditions: Table 7B, 4th column
For B2, the Micropan score was 4. With B10 the Micropan score was 4. With B12 the Micropan score was 4. B13 gave a Micropan score of 4. For B15, the Micropan score was 4.

Same assay, conditions: Table 7B, 5th column
B3 was tested, and the Micropan score was 4. B4 was tested, and the Micropan score was 4. With B5 the Micropan score was 4. B6 gave a Micropan score of 4. B7 gave a Micropan score of 4. In the case of B8, the Micropan score is reported as 4. Work on B9 yielded a Micropan score of 4. B11 gave a Micropan score of 4. B14 showed a Micropan score of 4. B15 was tested, and the Micropan score was 0 (0 symbolizing <10 colonies).
